System: Escherichia coli TOP10
Assay: shrunken log2 fold change of peptide-encoding DNA abundance (4.5 h post-induction vs induction); higher = less antimicrobial activity (less host growth inhibition)
Conditions: time post-induction: 4.5 h; library: site-saturation at positions 5, 18, 19, 20
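Also: peptides expressed intracellularly from a pBAD plasmid library in pooled LB shake-flask culture, induced with 0.3% L-arabinose, DNA abundance read by NGS, three biological replicates, DESeq2 with apeglm shrinkage.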

Sequence | shrunken log2 fold change
RRIRRRPPRLPRPRPRPFNAPRP | -0.0138
RRIRFRPPRLPRPRPRPPPGPRP | 1.34
RRIRLRPPRLPRPRPRPGNHPRP | -0.267
RRIRPRPPRLPRPRPRPWEAPRP | -0.224
RRIRIRPPRLPRPRPRPWCWPRP | -0.146
RRIRNRPPRLPRPRPRPFIQPRP | -0.737
RRIRVRPPRLPRPRPRPHIWPRP | -0.244
RRIRHRPPRLPRPRPRPEIFPRP | -0.0725
RRIRNRPPRLPRPRPRPNFTPRP | -0.197
RRIRPRPPRLPRPRPRPEQLPRP | 0.0838
RRIRDRPPRLPRPRPRPEELPRP | 0.00153
RRIRFRPPRLPRPRPRPKIIPRP | -0.592
RRIRMRPPRLPRPRPRPQPDPRP | 0.658
RRIRPRPPRLPRPRPRPDQWPRP | -0.0215
RRIRRRPPRLPRPRPRPNHVPRP | -0.443
RRIRERPPRLPRPRPRPVFYPRP | -0.437
RRIRKRPPRLPRPRPRPGVVPRP | 0.755
RRIRERPPRLPRPRPRPSTWPRP | -0.651
RRIRYRPPRLPRPRPRPNEQPRP | 0.0039
RRIRDRPPRLPRPRPRPCTAPRP | 0.00714
RRIRPRPPRLPRPRPRPDHLPRP | -0.172
RRIRTRPPRLPRPRPRPPHYPRP | 0.0354
RRIRCRPPRLPRPRPRPHCDPRP | -0.579
RRIRNRPPRLPRPRPRPHSSPRP | -0.00587
RRIRVRPPRLPRPRPRPQVVPRP | -0.00557

Sequence | shrunken log2 fold change
RRIRSRPPRLPRPRPRPIHKPRP | -0.165
RRIRRRPPRLPRPRPRPCPPPRP | 0.0965
RRIRLRPPRLPRPRPRPEWPPRP | 0.549
RRIRSRPPRLPRPRPRPRKDPRP | 0.271
RRIRNRPPRLPRPRPRPVICPRP | -0.102
RRIRTRPPRLPRPRPRPYNPPRP | -0.224
RRIRPRPPRLPRPRPRPMLQPRP | -0.105
RRIRVRPPRLPRPRPRPIGNPRP | -0.194
RRIRFRPPRLPRPRPRPNSFPRP | -0.894
RRIRERPPRLPRPRPRPCYFPRP | -0.917
RRIRKRPPRLPRPRPRPNWHPRP | -0.0566
RRIRVRPPRLPRPRPRPCPIPRP | -0.296
RRIRRRPPRLPRPRPRPDIPPRP | -0.22
RRIRMRPPRLPRPRPRPWTWPRP | -0.0795
RRIRQRPPRLPRPRPRPEAYPRP | 0.0335
RRIRQRPPRLPRPRPRPWHVPRP | -0.0656
RRIRDRPPRLPRPRPRPLQNPRP | 0.338
RRIRHRPPRLPRPRPRPWVSPRP | -0.683
RRIRERPPRLPRPRPRPSMDPRP | -0.355
RRIRERPPRLPRPRPRPLDQPRP | 0.09
RRIRPRPPRLPRPRPRPKWKPRP | -0.0038
RRIRFRPPRLPRPRPRPHAYPRP | -0.118
RRIRKRPPRLPRPRPRPNSDPRP | -0.0158
RRIRTRPPRLPRPRPRPYDNPRP | -0.141
RRIRLRPPRLPRPRPRPNQTPRP | -0.0464

Sequence | shrunken log2 fold change
RRIRVRPPRLPRPRPRPVIKPRP | -0.138
RRIRRRPPRLPRPRPRPVIRPRP | 0.1
RRIRARPPRLPRPRPRPSCIPRP | -0.131
RRIRNRPPRLPRPRPRPQWPPRP | 0.00622
RRIRWRPPRLPRPRPRPSRSPRP | 0.0592
RRIRRRPPRLPRPRPRPWMSPRP | 0.118
RRIRFRPPRLPRPRPRPKFTPRP | 0.012
RRIRHRPPRLPRPRPRPYWLPRP | -0.85
RRIRFRPPRLPRPRPRPDENPRP | -0.0759
RRIRQRPPRLPRPRPRPLADPRP | 0.194
RRIRFRPPRLPRPRPRPCNNPRP | -0.82
RRIRWRPPRLPRPRPRPKSLPRP | -0.0933
RRIRTRPPRLPRPRPRPKMWPRP | 0.307
RRIRERPPRLPRPRPRPGGPPRP | -0.00661
RRIRSRPPRLPRPRPRPWITPRP | -0.305
RRIRWRPPRLPRPRPRPNPYPRP | -0.133
RRIRNRPPRLPRPRPRPCMTPRP | 0.0616
RRIRHRPPRLPRPRPRPFNKPRP | -0.01
RRIRCRPPRLPRPRPRPCGDPRP | 0.0996
RRIRTRPPRLPRPRPRPDPNPRP | 0.0586
RRIRPRPPRLPRPRPRPIDKPRP | -0.188
RRIRTRPPRLPRPRPRPYFTPRP | -1.11
RRIRPRPPRLPRPRPRPQIEPRP | -0.0699
RRIRRRPPRLPRPRPRPFYLPRP | -0.226
RRIRFRPPRLPRPRPRPKYAPRP | -0.145

Sequence | shrunken log2 fold change
RRIRHRPPRLPRPRPRPIPLPRP | -0.193
RRIRLRPPRLPRPRPRPGAWPRP | 0.0481
RRIRGRPPRLPRPRPRPVPKPRP | 0.92
RRIRARPPRLPRPRPRPMPVPRP | 0.0463
RRIRDRPPRLPRPRPRPLAFPRP | 0.334
RRIRERPPRLPRPRPRPPDQPRP | 0.155
RRIRYRPPRLPRPRPRPTTKPRP | -0.179
RRIRMRPPRLPRPRPRPVAIPRP | 0.104
RRIRGRPPRLPRPRPRPCGFPRP | 1.25
RRIRGRPPRLPRPRPRPWITPRP | -0.204
RRIRYRPPRLPRPRPRPEFAPRP | -0.167
RRIRCRPPRLPRPRPRPKGAPRP | 0.492
RRIRKRPPRLPRPRPRPKPAPRP | 1.11
RRIRIRPPRLPRPRPRPNEGPRP | -0.45
RRIRNRPPRLPRPRPRPPHAPRP | 0.22
RRIRGRPPRLPRPRPRPCWIPRP | -0.0658
RRIRTRPPRLPRPRPRPYCNPRP | -1.32
RRIRMRPPRLPRPRPRPTHAPRP | 0.995
RRIRSRPPRLPRPRPRPTVIPRP | -0.0891
RRIRVRPPRLPRPRPRPTPRPRP | 0.859
RRIRARPPRLPRPRPRPGTVPRP | 0.336
RRIRERPPRLPRPRPRPASSPRP | 0.0151
RRIRARPPRLPRPRPRPCGWPRP | 0.365
RRIRCRPPRLPRPRPRPRHYPRP | -0.393
RRIRTRPPRLPRPRPRPRWGPRP | 0.164

Sequence | shrunken log2 fold change
RRIRVRPPRLPRPRPRPGTGPRP | 0.148
RRIRFRPPRLPRPRPRPTTYPRP | -0.608
RRIRQRPPRLPRPRPRPTHNPRP | 0.357
RRIRMRPPRLPRPRPRPFPKPRP | 0.385
RRIRLRPPRLPRPRPRPYWSPRP | -1.41
RRIRIRPPRLPRPRPRPLCLPRP | -0.736
RRIRQRPPRLPRPRPRPVVCPRP | 3.57
RRIRIRPPRLPRPRPRPWYQPRP | 0.00187
RRIRCRPPRLPRPRPRPEPNPRP | 0.265
RRIRARPPRLPRPRPRPYSQPRP | -0.135
RRIRMRPPRLPRPRPRPISHPRP | -0.018
RRIRQRPPRLPRPRPRPGGGPRP | 0.748
RRIRMRPPRLPRPRPRPFMDPRP | -0.119
RRIRCRPPRLPRPRPRPLGEPRP | 0.277
RRIRPRPPRLPRPRPRPHQTPRP | -0.0729
RRIRLRPPRLPRPRPRPVGVPRP | -0.0387
RRIRVRPPRLPRPRPRPYCCPRP | -0.252
RRIRCRPPRLPRPRPRPWPSPRP | -0.0603
RRIRRRPPRLPRPRPRPCGKPRP | 0.254
RRIRARPPRLPRPRPRPIAHPRP | 0.13
RRIRQRPPRLPRPRPRPHRYPRP | -0.812
RRIRTRPPRLPRPRPRPQYFPRP | -0.395
RRIRCRPPRLPRPRPRPMSPPRP | -0.0415
RRIRSRPPRLPRPRPRPYPKPRP | -0.119
RRIRHRPPRLPRPRPRPYNSPRP | 0.0224
